Test results from patent US12643926B2, “LysM receptor motifs” (Aarhus Universitet, priority 2020, dated 2026).

Assay: Biolayer interferometry of LYS11 ectodomains binding to CO5
Details: BLI; result in words
Procedure: Binding of L. japonicus LYS11 ectodomain and domain-swapped versions of L. japonicus LYS11 ectodomain to ligands was measured on an Octet RED 96 system (Pall ForteBio). The ligands used were CO5 chitin oligomer (corresponding to the backbone of S. meliloti Nod factor LCO-V), M. loti Nod factor LCO, and S. meliloti Nod factor LCO. S. meliloti LCO consists of a tetrameric/pentameric N-acetylglucosamine backbone that is O-sulfated on the reducing terminal residue, O-acetylated on the non-reducing terminal residue, and mono-N-acylated by unsaturated C16 acyl groups. M. loti LCO is a pentameric N-acetylglucosamine with a cis-vaccenic acid and a carbamoyl group at the non-reducing terminal residue together with a 2,4-O-acetylfucose at the reducing terminal residue. Biotinylated ligand conjugates were immobilized on streptavidin biosensors (kinetic quality, Pall ForteBio) at a concentration of 125-250 nM for 5 minutes. Data analysis was performed in GraphPad Prism 6 software (GraphPad Software, Inc.). Equilibrium dissociation constants derived from the steady-state were determined by applying a non-linear regression (one site, specific binding) to the response at equilibrium plotted against the protein concentration. Kinetic parameters were determined by non-linear regression (association followed by dissociation) on the subtracted data. […]

binding to CO5 (chitin): able to bind CO5
B1: L. japonicus LYS11 ectodomain: L. japonicus LYS11 ectodomain (residues 26-234 of SEQ ID NO: 255), 6xHis tag, insect cell expressed (protein)
chain: LAQLSHTNGTNFSCPVDSPPSCDTYVTYFAQSPNFLTLTSISDLFDTSPLSIARASNIKDENQNLVPGQLLLVPVTCACSGSNSFSNISHMIKEGESYYYLSTTSYENLTNWETVQDSNPNYNPYLLPVGIKVVIPLFCKCPSNYHLNKGIEYLITYVWHNNDNVSLVASKFGVSTQDIISENNFSHQNFTAATNFPILIPVTQLPSLS
modifications: 6xHis tag; Xaa = hydrophobic patch residues; Xaa = residues immediately adjacent to hydrophobic patch residues
